According to the supplement of paper PMC9170038:

Tested on: MS2 coat protein
Experiment: apparent KD of MS2 coat protein; designed switch direction (-1 OFF switch, 1 ON switch): -1; higher = weaker reporter binding
Procedure, shortened: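 For each design, the apparent KD is the median over clusters of curves fitted to normalised cluster fluorescence. Clusters held RNA switches with common flanks, transcribed on Illumina chips by stalled E. coli RNA polymerase. These were titrated with SNAP-549-labelled MS2 coat protein, doubling from 0.7 or 1.5 nM to 3 µM, without input, with 200 uM small-molecule ligand, or with an oligonucleotide input.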

[1] = Eterna round: R95, input ligand: FMN 200 uM
[2] = Eterna round: R95, input ligand: microRNA oligo, concentration not stated
[3] = Eterna round: R95, input ligand: none
[4] = input ligand: microRNA oligo, concentration not stated

| Sequence | apparent KD of MS2 coat protein [2] | apparent KD of MS2 coat protein (input ligand: FMN 200 uM) | apparent KD of MS2 coat protein (input ligand: none) | further results |
| --- | --- | --- | --- | --- |
| AAUACUAACACGAAAGUGUUAGUACAAUAAGCUUGUGGUACAUGAGGAUCACCCAUGUCCUCAUAAGCUCGUCUUAU [Mat - Sensor v3 - Turn-off var 2 - D41] (puzzle: Sensor v3, turn-off variant 2) | 74.5 nM | – | – | apparent KD of MS2 coat protein [1]: 24.3 nM; apparent KD of MS2 coat protein [3]: 21.9 nM |
| UUUGCAAGCUAAAGAUCCCACAUGAGGAUCACCCAUGUUGCUGCCGUGAGGUAGCAUUUAACUUUUGCUCGUCUUAU [JL TOV1 3.49] (Eterna round: R97, puzzle: Sensor, turn-off variant 1) | – | 282 nM | 300 nM | – |
| GCUGGUCAAGGAUAUACAUGAGGAUCACCCAUGUGAUCAGCAGUCCUCGGACUGCAAUGUAGAAGGUGACCAGC [E3/1-C1] (Eterna round: R97, puzzle: Exclusion 3) | – | 29.3 nM | 458 nM | – |
| AGAUCGUCAGGAUAUACAUGAGGAUCACCCAUGUGUAGUCUAAAUUUGACUACAAUAUGUAGAAGGGACGAUCG [Exclusion 3 (MOD3 of #1 Marzena11)] (Eterna round: R97, puzzle: Exclusion 3) | – | 98.9 nM | 42.8 nM | – |
| AUAAGUAUAUAGGAUAUCUAGCUGGUAACAGCUAGAGAAGGAUGUACAUGAGGAUCACCCAUGUAAAUCUCAAU [Ex6/12-A2] (Eterna round: R97, puzzle: Exclusion 6) | – | 15.7 nM | 16.1 nM | – |
| CCGGAAAAGGAGGAUAUAGGAGUCGAUAGACACCUAGAAGGCCUGACAUGAGGAUCACCCAUGUGUCCUACCGG [Fiskers Ex 6 - 92] (puzzle: Exclusion 6) | 17.9 nM | – | – | apparent KD of MS2 coat protein [1]: 38.3 nM; apparent KD of MS2 coat protein [3]: 16.8 nM |
| UCUUUGUCAGGAUAUCGUGCAUACAACGAAAGUUCUAUGUGCGAGAAGGGACAUGAGGAUCACCCAUGUUACGG [Omei Ex4 A4] (Eterna round: R97, puzzle: Exclusion 4) | – | 244 nM | 358 nM | – |
| GAGAUACAUGAGGAUCACCCAUGUGAGGAUAUGAGCACGCCGGUGACGGUGAUAAGAAUCAGAAGGCACAAUGG [Mat - Exclusion 1 - JL Mod - D31] (Eterna round: R97, puzzle: Exclusion 1) | – | 338 nM | 453 nM | – |
| CAGUACAGAGGAUAUACAUGAGGAUCACCCAUGUGUUCCAGCUAGGAAACUAGCGAAUGUAGAAGGCUGUACUG [jl-ex3-4.23 salish99 mod] (Eterna round: R97, puzzle: Exclusion 3) | – | 166 nM | 273 nM | – |
| GCCUUAUCUGUCAGGAUAUACAAUAAAAUAACUUUGUAGAAGGGACAUGAGGAUCACCCAUGUACAUUACAUUG [alecazam24b] (Eterna round: R97, puzzle: Brourd's mod of Exclusion 4) | – | 63.1 nM | 24.6 nM | – |
| CCGCUGUGAGGAUAUUAGUAGUAGUCAGAAAAGACUAUUACUGAGAAGGCACAUGAGGAUCACCCAUGUGGCGG [Mat - Exclusion 4 - Eli Mod - D47] (Eterna round: R97, puzzle: Exclusion 4) | – | 31.4 nM | 21.5 nM | – |
| CUCUUACAUGAGGAUCACCCAUGUGAGGAUAUGCCCGGAGUAGCAGCAGAUCCUCUGGGCAGAAGGCACGUAGG [Eternabot (L1) Solution 98] (Eterna round: R97, puzzle: Exclusion 1) | – | 144 nM | 123 nM | – |
| UUAAUAUAUCAGGAUAUGAUUAUAUGUGUUAAAUCAGAAGGGAUAACAUGAGGAUCACCCAUGUUGUGGAGUGA [JR_Ex6_Sub033] (Eterna round: R97, puzzle: Exclusion 6) | – | 303 nM | 92.8 nM | – |
| UGAUCAGACCGAGGAUAUACAGGGAGCACGCACGUGAGUGCGUGCACUACAUGAGGAUCACCCAUGUAGAAGGCGGUCUGAUCU [JL ENG2 1.00] (Eterna round: R96, puzzle: Exclusion NG 2) | – | 268 nM | 19.3 nM | apparent KD of MS2 coat protein [4]: 16.1 nM |
| UGAGGACAUGAGGAUCACCCAUGUAAGGAUAUGCGGAGAGUUUGGAGAGGUUGAGGAGGCAGAAGGUACGGGAU [JR_Exclu1_Sub046] (puzzle: Exclusion 1) | 102 nM | – | – | – |
| CGGUGCUGAGGAUAUACAUGAGGAUCACCCAUGUGUUCCGGCUAGCUGACUGGCGCUUGUAGAAGGCAGUACUG [JL-ex3-2.11 Brourd mod] (puzzle: Exclusion 3) | 16.3 nM | – | – | – |
| CAUGAUUGACGAGGAUAUUGUUCUACAUGGCGACGAGAAGGCGUCUGUCACAUGAGGAUCACCCAUGUGAGUCUGGUGAAUGAG [Ex NG1 #83] (Eterna round: R96, puzzle: Exclusion NG 1) | – | – | – | apparent KD of MS2 coat protein [4]: 25.7 nM |
| AAUUAUUUAUGAGGAUAUUGUGGUGAAACACCACAAGAAGGCAUGAUACACAUGAGGAUCACCCAUGUGAGCCUGAUGCAUAUA [Ex NG1 #58] (Eterna round: R96, puzzle: Exclusion NG 1) | – | – | – | apparent KD of MS2 coat protein [4]: 13.5 nM |

| Sequence | apparent KD of MS2 coat protein [2] | apparent KD of MS2 coat protein (input ligand: FMN 200 uM) | apparent KD of MS2 coat protein (input ligand: none) | further results |
| --- | --- | --- | --- | --- |
| AAAGGAUGCCUAGGAUAUUGACUAAGAAAGGAUUAAGAAGGAGGAAAUAUAUGAGGGAUCCACAUGAGGAUCACCCAUGUACAC [Xesousbege] (Eterna round: R96, puzzle: Exclusion NG 1) | – | 769 nM | 607 nM | apparent KD of MS2 coat protein [4]: 315 nM |
| UCUGGUCGAGGAUAUGCAAUCGUGCUUCGGCACGUAAGGUCACAUGAGGAUCACCCAUGUAGAAGGCGACCAGA [E2/4-A3] (Eterna round: R97, puzzle: Exclusion 2) | – | 34.4 nM | 17.3 nM | – |
| UAUUUAGCAAGCAGAUCCCACAUGAGGAUCACCCAUGUUCUCUGAAAGUACAGAAUUACUGUACAUGCUCGUCUUAU [Winner reversed engineered 33] (Eterna round: R97, puzzle: Sensor, turn-off variant 1) | – | 108 nM | 130 nM | – |
| CCCUCACAUGAGGAUCACCCAUGUCAGGAUAUUCAGGUCACGCAAAAGCGGUUCCAAAGGAGAAGGGACAUCAA [Cequusso] (puzzle: Exclusion 1) | 24.2 nM | – | – | apparent KD of MS2 coat protein [1]: 43.8 nM; apparent KD of MS2 coat protein [3]: 30.9 nM |
| GUGUACUGAGGAUAUGCUGGAAUCUAGCGAAGCUAGGUUCCACAUGAGGAUCACCCAUGUAGAAGGCGGUACAC [Dot plot directed A v6] (puzzle: Exclusion 2) | 29.1 nM | – | – | – |
| GUCAUACAUGAGGAUCACCCAUGUGAGGAUAUGGGCGGCGCCGCAAAAGCGGCGCCGCCCAGAAGGCGCAUGAU [Malcxlusion 5 - Jieux - Exclusion 1] (Eterna round: R97, puzzle: Exclusion 1) | – | 195 nM | 71.5 nM | – |
| ACAUGAGGAUCACCCAUGUAAUCAUGAUGGCUGAUGUAGAGUCAGGAUAUGUGUGGCUUUCUAUCACAGAAGGGACAAGACUGG [Deportation 36 - Jieux - Exclusion NG 3] (Eterna round: R96, puzzle: Exclusion NG 3) | – | 42.9 nM | 34.9 nM | apparent KD of MS2 coat protein [4]: 26.2 nM |
| ACCCAACAUGAGGAUCACCCAUGUCAGGAUAUCCAAGCGAAAGCAAAAGCGAAAGCAAGGAGAAGGGACAAUGG [ChP 04-04-2015 #7] (puzzle: Exclusion 1) | 161 nM | – | – | apparent KD of MS2 coat protein [1]: 134 nM; apparent KD of MS2 coat protein [3]: 276 nM |
| UUUAAUUUUUUUUUUUUACAAGCUUUUUGCUCGUCUUAUACAUGAGGAUCACCCAUGUGGGUAAGAGAUAAAUUAUC [JMF 13] (puzzle: Sensor v3, turn-off variant 2) | 36.3 nM | – | – | apparent KD of MS2 coat protein [1]: 24.9 nM; apparent KD of MS2 coat protein [3]: 27.8 nM |
| CCAAUGUAAGGAUAUGACAAUGGUAUCUUCGGAUACCAUUGUCAGAAGGUACAUGAGGAUCACCCAUGUAUAAA [Ex4-3: 10] (puzzle: Exclusion 4) | 17.3 nM | – | – | – |
| CUAAUACAUGUGAGGAUAUACGACUUGGAGACGGCGUAGAAGGUACAUGAGGAUCACCCAUGUGCGGGCUCCUU [Eternabot (L1) Solution 49] (Eterna round: R97, puzzle: Brourd's mod of Exclusion 4) | – | 55.9 nM | 27.5 nM | – |
| GAGUUACAUGAGGAUCACCCAUGUGAGGAUAUGAGUCAGUCACGGUGACGUGGCUGACUCAGAAGGCACAAAGG [Mat - Exclusion 1 - JL Mod - D37] (Eterna round: R97, puzzle: Exclusion 1) | – | 186 nM | 83.8 nM | – |
| CUAUUGCGAGGAUAUGAUUUAAAUAACAUGAGGAUCACCCAUGUUUUUACGUUGUUAUGUUCAGAAGGCGUAUUGU [JR_E5_Sub024] (puzzle: Exclusion 5) | 41.4 nM | – | – | – |
| CCAAGCUUUUUCAUUAACAACAUGAGGAUCACCCAUGUUUAAGCUAUUACUUUUGGGCUCUUUAGUGCUCGUCUUAU [JR_STOV1_Sub040] (Eterna round: R97, puzzle: Sensor, turn-off variant 1) | – | 14.4 nM | 13.9 nM | – |
| CCUCUGUAAGGAUAUACGGAGACCACUGGAAUCAGUGGAAAGUAGAAGGUACAUGAGGAUCACCCAUGUGAGAA [Laveatisce] (puzzle: Exclusion 4) | 36.2 nM | – | – | apparent KD of MS2 coat protein [1]: 36.5 nM; apparent KD of MS2 coat protein [3]: 49.3 nM |
| CAGUACUGAGGAUAUACAUGAGGAUCACCCAUGUGAGCGAUACUAGUGAGGUCGAUUAGUAGAAGGCAGUACUG [Mat X3R4 m33] (Eterna round: R97, puzzle: Exclusion 3) | – | 353 nM | 32 nM | – |
| AUGGACGCAGGAUAUACAUGAGGAUCACCCAUGUUAGGGUUAAGAGAAGGAAGGGAGAGUAGAAGGGCGAGAGU [JR_Exclu3_Sub0100] (puzzle: Exclusion 3) | 110 nM | – | – | – |
